Laboratory results published in US20220380801A1 (AstraZeneca / MedImmune, published 2022).
Numbering of substitutions follows the chain as printed.

Assays:
[1] = target: T1, BSA, in the presence of simeprevir (UniProt P02769 25-607); assay: SPR Biacore 8K, PRSIM immobilised, BSA + 10 nM simeprevir
T1 construct: also called BSA control

[2] = target: T2, HCV NS3/4A PR (S139A):simeprevir complex (Hepatitis C virus subtype 1a); assay: SPR Biacore 8K, PRSIM immobilised, protease flowed with 10 nM simeprevir
[3] = target: T2, HCV NS3/4A PR (S139A):simeprevir complex; assay: HTRF, with simeprevir
[4] = target: T2, HCV NS3/4A PR (S139A):simeprevir complex; assay: phage ELISA
[5] = target: T3, HCV NS3/4A PR D168E (S139A background), in the presence of simeprevir (Hepatitis C virus subtype 1a)
T3 chain: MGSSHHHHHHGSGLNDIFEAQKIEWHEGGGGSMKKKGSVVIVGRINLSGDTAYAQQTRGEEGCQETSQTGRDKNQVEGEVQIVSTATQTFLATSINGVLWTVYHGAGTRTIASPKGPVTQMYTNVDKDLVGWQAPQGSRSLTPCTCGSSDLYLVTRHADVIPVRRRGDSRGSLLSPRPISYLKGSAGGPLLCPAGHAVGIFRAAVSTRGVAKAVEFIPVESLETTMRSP

[6] = target: T4, HCV NS3/4A PR K136N (S139A background), in the presence of simeprevir (Hepatitis C virus subtype 1a)
T4 chain: T3 chain with K183N, E215D

[7] = target: T5, HCV NS3/4A PR K136D (S139A background), in the presence of simeprevir (Hepatitis C virus subtype 1a)
T5 chain: T3 chain with K183D, E215D

[8] = target: T3, HCV NS3/4A PR D168E (S139A background), …; assay: SPR Biacore 8K, with simeprevir
[9] = target: T4, HCV NS3/4A PR K136N (S139A background), …; assay: SPR Biacore 8K, with simeprevir
[10] = target: T5, HCV NS3/4A PR K136D (S139A background), …; assay: SPR Biacore 8K, with simeprevir
[11] = target: T3, HCV NS3/4A PR D168E (S139A background), …
[12] = target: T4, HCV NS3/4A PR K136N (S139A background), …
[13] = target: T5, HCV NS3/4A PR K136D (S139A background), …
[14] = target: T5, HCV NS3/4A PR K136D (S139A background), …; assay: SPR Biacore 8K, simeprevir titrated

T1 sequence (P02769 25-607 limits assumed): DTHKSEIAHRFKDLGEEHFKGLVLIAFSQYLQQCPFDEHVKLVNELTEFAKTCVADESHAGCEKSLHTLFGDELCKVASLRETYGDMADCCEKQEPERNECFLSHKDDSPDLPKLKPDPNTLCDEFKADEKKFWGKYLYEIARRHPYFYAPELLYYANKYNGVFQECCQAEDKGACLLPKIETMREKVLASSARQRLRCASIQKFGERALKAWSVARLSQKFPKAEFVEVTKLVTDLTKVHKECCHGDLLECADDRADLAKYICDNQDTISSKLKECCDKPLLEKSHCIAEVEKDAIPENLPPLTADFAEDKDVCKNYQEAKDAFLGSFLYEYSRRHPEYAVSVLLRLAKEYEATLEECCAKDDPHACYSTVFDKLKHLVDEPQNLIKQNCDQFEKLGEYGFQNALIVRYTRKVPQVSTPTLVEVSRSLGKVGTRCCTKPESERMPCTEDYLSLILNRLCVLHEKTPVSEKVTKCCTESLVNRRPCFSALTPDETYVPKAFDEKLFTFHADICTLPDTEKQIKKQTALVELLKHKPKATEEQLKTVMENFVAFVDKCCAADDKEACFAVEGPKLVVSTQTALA

B1: PRSIM_32 (designed binder)
chain: RLDAPSQIEVKDVTDTTALITWWSPRYYYASISGFELTYGIKDVPGDRTTIKLDYASNDYSIGNLKPDTEYEVSLISWNYGDWRYSSSNPAKITFKTGL
Q: What does the source list for B1?
A: binding result [1]: no binding (tested: 20 nM); Kd [2]: 16 nM; HTRF max. signal (% delta F) [3]: 1960 % delta F; Binding fold change [(HCV protease + Simeprevir binding)/HCV protease alone] [4]: 22.4 fold

B2: PRSIM_33 (designed binder)
chain: RLDAPSQIEVKDVTDTTALITWYPPGRWYDDIWYFELTYGIKDVPGDRTTIKLARGDDVYSIGNLKPDTEYEVSLISWGPDRGDRAGSNPAKITFKTGL
Q: Does B2 bind [1]?
A: Result: no binding (tested: 20 nM)

Q: And the Kd [2]?
A: The Kd was 8.3 nM.

Q: And the koff [2]?
A: The koff was 0.0303 s⁻¹.

Q: What about the kon [2] of the same binder?
A: Its kon is 3.65e+06 M⁻¹ s⁻¹.

Q: And the “HTRF max. signal (% delta F)” value [3]?
A: Its value is 1700 % delta F.

Q: And the “Binding fold change [(HCV protease + Simeprevir binding)/HCV protease alone]” value [4]?
A: Its value is 29.9 fold.

B3: PRSIM_36 (designed binder)
chain: RLDAPSQIEVKDVTDTTALITWSWPRDDDYDIWYFELTYGIKDVPGDRTTIKLLNYASPYSIGNLKPDTEYEVSLISVVPDTYGRGTSNPAKITFKTGL
Q: Does B3 bind [1]?
A: Result: no binding (tested: 20 nM)

Q: And the Kd [2]?
A: The Kd was 9.7 nM.

Q: And the koff [2]?
A: The koff was 0.0498 s⁻¹.

Q: And the kon [2]?
A: Its kon is 5.15e+06 M⁻¹ s⁻¹.

Q: What about the “HTRF max. signal (% delta F)” value [3] of the same binder?
A: The value was 1440 % delta F.

Q: And the “Binding fold change [(HCV protease + Simeprevir binding)/HCV protease alone]” value [4]?
A: The value was 27.9 fold.

B4: PRSIM_47 (designed binder)
chain: RLDAPSQIEVKDVTDTTALITWSRPGVSIWYFELTYGIKDVPGDRTTIKLDYRSYYYSIGNLKPDTEYEVSLISGSYGLVGVRASNPAKITFKTGL
Q: What does the source list for B4?
A: binding result [1]: no binding (tested: 20 nM); Kd [2]: 3.9 nM; HTRF max. signal (% delta F) [3]: 1370 % delta F; Binding fold change [(HCV protease + Simeprevir binding)/HCV protease alone] [4]: 25.3 fold

B5: PRSIM_23 (designed binder)
chain: RLDAPSQIEVKDVTDTTALITWVDPRYDDIWWFELTYGIKDVPGDRTTIKLYLNDPYYSIGNLKPDTEYEVSLISYTGDSYSRSGSNPAKITFKTGL
Q: With B5 as the binder, how does the Kd [5] read?
A: Its Kd is 14.7 nM.

Q: What about the Kd [6] of the same binder?
A: Its Kd is 39.5 nM.

Q: What about the kon [6] of the same binder?
A: Its kon is 5.31e+08 M⁻¹ s⁻¹.

Q: And the Kd [7]?
A: The Kd was 33 nM.

Q: What about the “fold decrease of affinity against 'wt' protease” value [8] of the same binder?
A: The value was roughly 3 fold.

Q: What about the “fold decrease of affinity against 'Wt'” value [9] of the same binder?
A: The value was 6 to 7 fold.

Q: And the “fold decrease of affinity against 'Wt'” value [10]?
A: Its value is 6 to 7 fold.

Q: What about the “Simeprevir EC50 for induction of heterodimerisation” value (“Simeprevir EC50 for induction” below) [11] of the same binder?
A: Its value is 3.69 nM.

Q: And the “Simeprevir EC50 for induction” value [12]?
A: The value was 8.06 nM.

Q: What about the “Simeprevir EC50 for induction” value [13] of the same binder?
A: The value was 132 nM.

Q: What about the “fold increase of the simeprevir EC50 against the wt complex” value [14] of the same binder?
A: The value was roughly 30 fold.

B6: PRSIM_04 (scFv)
scFv: QVQLVQSGAEVKKPGSSVKVSCKASGGTFSSYAISWVRQAPGQGLEWMGGIIPIFGTANYAQKFQGRVTITADESTSTAYMELSSLRSEDTAVYYCARGMAHFYQFDLWGQGTLVTVSSGGGGSGGGGSGGGGSAQSVLTQPPSASGTPGQRVTISCSGSSSNIGSNTVNWYQQLPGTAPKLLIYSNNQRPSGVPDRFSGSKSGTSASLAISGLQSEDEADYYCAAGDHDHEHVVFGGGTKLTVL
notes: also called PRSIM_4
Q: Does B6 bind [1]?
A: Result: no binding (tested: 20 nM)

B7: PRSIM_57 (scFv)
scFv: QVQLVQSGAEVKKPGSSVKVSCKASGGTFSSYAISWVRQAPGQGLEWMGGIIPIFGTANYAQKFQGRVTITADESTSTAYMELSSLRSEDTAVYYCARHTNYITVFDYWGQGTLVTVSSGGGGSGGGGSGGGGSAQSVLTQPPSASGTPGQRVTISCSGSSSNIGSNTVNWYQQLPGTAPKLLIYSNNQRPSGVPDRFSGSKSGTSASLAISGLQSEDEADYYCAAWDHHWEQVVFGGGTKLTVL
Q: Does B7 bind [1]?
A: Result: no binding (tested: 20 nM)

B8: PRSIM_67 (scFv)
scFv: EVQLVQSGAEVKKPGAAVRISCKTSGYVFTSYYVHWVRQAPGQGLEWMGVINPSGGNTNYAQKFQDRVTMTRDTSTTTVYMELSSLMFDDTAVYYCAKRDYGGPLANWGRGTLVTVSSGGGGSGGGGSGGGGSALSYELTQPPSVSEAPRQRVTISCSGSSSNIGNNAVNWYQQLPGKAPKLLIFYDDLLPSGVSDRFSGSKSGTSASLAISGLQSEDEADYYCAAWDDSLNGLVFGTGTKLTVL
Q: Does B8 bind [1]?
A: Result: no binding (tested: 20 nM)

B9: PRSIM_72 (scFv)
scFv: QVQLVQSGAEVKKPGSSVKVSCKVSGGSFNNYGVSWVRQAPGQGLEWMGRIIPIRDTANYAQKFQGRVTITADTSTNIAYMELSGLRSDDTAVYYCARVLEDDFWGGYYDFYFYVMDVWGQGTLVTVSSGGGGSGGGGSGGGGSALSSELTQDPVVSVPLGQTARITCQGDSLTTYYATWYQQKPGQAPVLVLYNEHKRPSGISDRFSGSSAGDAASLTITDTQAEDEADYYCSSRDTGGKHVLFGGGTKLTVL
Q: Does B9 bind [1]?
A: Result: no binding (tested: 20 nM)

B10: PRSIM_75 (scFv)
scFv: EVQLVQSGAEVKKPGSSVKVSCKASGGSFNSYTLDWVRQAPGQGLEWMGGIIPVFGSPNYGQKFQGRVTITADESTSTAYMELSSLKSDDTAVYYCARGLVYQPLDSWGRGTLVTVSSGGGGSGGGGSGGGGSAQAVLTQPSSASGTPGQRVTISCSGSSSNIGSYTVNWYQQFPGTAPKLLIYSNTQRPSGVPDRFSGSKSGTSASLAISGLQSEDEADYYCAAWDDSLNGWVFGGGTKVTVL
Q: Does B10 bind [1]?
A: Result: no binding (tested: 20 nM)
